Assay results taken from US9926375B2, “Anti-endoglin antibodies and uses thereof” (Tracon Pharmaceuticals, Inc., priority 2014, dated 2018).
“Also recorded” adds a separate entry of the source.

How the values were obtained:
[1] = system: NASH mice; assay: Murine model of non-alcoholic steatohepatitis (NASH; STZ and high fat diet); assay type: in vivo, mouse
Procedure, shortened: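 NASH induced in mice by single postnatal subcutaneous STZ plus high-fat diet from 4 weeks of age; groups of 10 dosed from day 63 with antibodies i.v. at 10 mg/kg twice weekly or telmisartan orally 10 mg/kg daily to day 84. At 12 weeks, H&E liver sections scored for NAFLD Activity Score (0–8); Bonferroni test, P<0.05.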

[2] = target: T1, mouse endoglin (Mus musculus, UniProt Q63961); assay: ELISA binding of M1043 antibody to mouse endoglin; conditions: 10 μg/ml to 0.014 μg/ml; plate coated with mouse endoglin 1 μg/ml
T1 construct: purchased R&D Systems 1320-EN-025
T1 sequence (Q63961 27-581 limits assumed): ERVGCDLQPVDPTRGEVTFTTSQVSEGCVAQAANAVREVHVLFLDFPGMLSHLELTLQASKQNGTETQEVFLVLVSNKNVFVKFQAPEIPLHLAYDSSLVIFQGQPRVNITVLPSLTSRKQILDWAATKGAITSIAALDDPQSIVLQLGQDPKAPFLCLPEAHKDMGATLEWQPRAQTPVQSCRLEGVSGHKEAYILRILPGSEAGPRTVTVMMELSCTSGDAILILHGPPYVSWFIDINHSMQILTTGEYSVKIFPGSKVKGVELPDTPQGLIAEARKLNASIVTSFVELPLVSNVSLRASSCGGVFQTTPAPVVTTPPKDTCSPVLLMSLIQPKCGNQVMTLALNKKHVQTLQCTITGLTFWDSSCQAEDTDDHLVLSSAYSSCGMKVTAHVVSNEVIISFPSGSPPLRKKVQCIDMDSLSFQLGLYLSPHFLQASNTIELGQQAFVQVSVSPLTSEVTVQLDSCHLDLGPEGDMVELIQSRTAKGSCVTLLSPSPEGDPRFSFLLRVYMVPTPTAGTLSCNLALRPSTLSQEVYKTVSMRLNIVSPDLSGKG
Experimental: An ELISA was established to determine the binding of M1043 antibody to mouse endoglin as follows: Nunc Immuno MaxiSorp 96 well flat bottom plates (Fisher, Cat. No. DIS-971-030J) were coated with mouse endoglin (R&D Systems, Cat. No. 1320-EN-025) at 1 μg/ml in PBS overnight at 4° C. The following day the plate was washed three times with PBST before blocking with PBST/3% Marvel at room temperature for 1 hour. After blocking, the plate was washed three times with PBST, and varying concentrations (10 μg/ml to 0.014 μg/ml in three-fold serial dilutions) of either M1043 or an irrelevant rat IgG1 (Affymetrix, Cat. No. 14-4301) in PBST/3% Marvel were added to the plate and incubated for 1 hour at room temperature. Binding of the antibodies was detected via anti-rat IgG peroxidase (Sigma, Cat. No. A9037) and TMB single solution substrate (Invitrogen, Cat. No. 00-2023). The reaction was stopped by adding 3 M HCl and OD450 nm values were measured on a Dynex MRX TCII plate reader.

[3] = target: T2, mouse endoglin (Mus musculus, UniProt Q63961); assay: Inhibition of mouse BMP binding to mouse endoglin (statement, no method); conditions: statement in description
T2 sequence (Q63961 27-653): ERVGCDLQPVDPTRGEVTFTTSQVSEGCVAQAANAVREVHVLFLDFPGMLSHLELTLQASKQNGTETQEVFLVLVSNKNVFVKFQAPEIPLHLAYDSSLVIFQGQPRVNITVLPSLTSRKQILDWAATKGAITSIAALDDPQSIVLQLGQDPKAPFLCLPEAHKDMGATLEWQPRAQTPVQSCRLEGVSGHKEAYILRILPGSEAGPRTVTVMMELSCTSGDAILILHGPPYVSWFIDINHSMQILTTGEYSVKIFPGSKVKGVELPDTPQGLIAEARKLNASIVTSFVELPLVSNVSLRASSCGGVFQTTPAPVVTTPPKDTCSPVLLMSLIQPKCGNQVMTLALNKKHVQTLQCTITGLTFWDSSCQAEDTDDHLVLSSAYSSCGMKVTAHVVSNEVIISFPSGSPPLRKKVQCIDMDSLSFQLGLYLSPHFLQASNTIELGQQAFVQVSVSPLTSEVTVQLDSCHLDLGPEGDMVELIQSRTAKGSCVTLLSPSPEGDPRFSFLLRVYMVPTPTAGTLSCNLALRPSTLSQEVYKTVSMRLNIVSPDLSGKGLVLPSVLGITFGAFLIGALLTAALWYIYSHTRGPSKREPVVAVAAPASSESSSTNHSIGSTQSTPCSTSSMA

[4] = liver gene expression, mean ± SD, Normal-Vehicle 1.0

B1: M1043: rat IgG1 antibody that binds mouse endoglin and competitively inhibits mouse BMP binding; VH SEQ ID NO: 124, VL SEQ ID NO: 125 (antibody, V domains shown)
VH: QVQLQQSGAELVKPGSSVKISCKASGYTFTSYDMHWIKQQPGNGLEWIGWIYPGNGNTKYNQKFNGKATLTADKSSSTAYMQLSSLTSEDSAVYFCARGKFGVGDYWGQGVMVTVSS
VL: DTVLTQSPALAVSPGERVSISCRASEGVNSYMHWYQQKPGQQPKLLIYIASNLASGVPARFSGSGSGTDFTLTIDPVEADDTATYFCQQSWNDPYTFGAGTKLELKR
- Liver triglyceride contents compared with the NASH-Vehicle group ([1]; Bonferroni, P<0.05): significant decreases
- Mean liver weight compared with the NASH-Vehicle group ([1]; Bonferroni, P<0.05): tended to decrease
- Mean liver-to-body weight ratio compared with the NASH-Vehicle group ([1]; Bonferroni, P<0.05): significant decreases
- NAS compared with the NASH-Vehicle group ([1]; Bonferroni, P<0.05): significant decreases in NAS; also recorded: significant reductions of NAS
- Serum alanine aminotransferase (ALT) levels compared with the NASH-Vehicle group ([1]; Bonferroni, P<0.05): tended to decrease
- Serum aspartate aminotransferase (AST) levels compared with the NASH-Vehicle group ([1]; Bonferroni, P<0.05): tended to decrease
- F4/80-positive signals and cells in liver compared with the NASH-Vehicle group ([1]; F4/80 immunostaining, macrophage marker): Lower F4/80-positive signals and positive cells
- Alpha-SMA mRNA expression [1, 4]: 1.7 ± 0.4
- MCP-1 mRNA expression [1, 4]: 3.2 ± 2.4
- TIMP-1 mRNA expression [1, 4]: 7.6 ± 3.3
- TNF-α mRNA expression [1, 4]: 4.4 ± 1.9
- Liver triglyceride ([1]; mean ± SD): 22.4 ± 5.4 mg/g liver
- Serum ALP ([1]; mean ± SD): 358 ± 129 U/L
- Serum ALT ([1]; mean ± SD): 24 ± 4 U/L
- Serum AST ([1]; mean ± SD): 76 ± 24 U/L
- Sirius red-positive area ([1]; mean ± SD, liver sections): 0.86 ± 0.30%
- NAS (NAFLD Activity score) ([1]; mean ± SD, range 0-8, 10 mg/kg): 4.1 ± 1.0
- Lobular inflammation score 0, number of mice ([1]; score 0 = No Foci): 1
- Hepatocyte ballooning score 0, number of mice ([1]; score 0 = None): 2
- Steatosis score 1, number of mice ([1]; score 1 = 5-33%): 6
- Lobular inflammation score 1, number of mice ([1]; score 1 = <2 foci/200x): 1
- Hepatocyte ballooning score 1, number of mice ([1]; score 1 = Few balloon cells): 2
- Lobular inflammation score 2, number of mice ([1]; score 2 = 2-4 foci/200x): 6
- Steatosis score 2, number of mice ([1]; score 2 = >33-66%): 2
- Hepatocyte ballooning score 2, number of mice ([1]; score 2 = Many cells/prominent ballooning): 4
- Inflammatory cell infiltration in the liver ([1]; summary of lobular inflammation score and F4/80 immunostaining): reductions in inflammatory cell infiltration in the liver
- Binding to mouse endoglin (ELISA) [2]: binds specifically to mouse endoglin
- Effect on mouse BMP binding to mouse endoglin [3]: competitively inhibit mouse BMP binding
